Laboratory results reported in PMC7137635.

Key:
p62 LIR (Homo sapiens) = p62 LIR (Homo sapiens) (UniProt Q13501); conditions: cited from earlier work
[1] = target: GST fusion of human OPTN (aa 2-311), Q96CV9-1; test: phage ELISA; conditions: Background correction to BSA signal was applied; read off a plot

Sequence of GATE-16 (P60520 1-116): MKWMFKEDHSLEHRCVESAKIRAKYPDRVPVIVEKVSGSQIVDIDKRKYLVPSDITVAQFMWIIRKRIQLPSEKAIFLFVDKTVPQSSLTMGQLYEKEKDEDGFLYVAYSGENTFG

Substance | Kd (p62 LIR (Homo sapiens)) | response [1]
GATE-16 (from UniProt P60520) | 5.2 µM | –
LC3Bwt displayed on phage (from UniProt Q9GZQ8) F11L; R14L; R15N; Q19L; E22D; D23N; [26-28]I (column not resolved, see notes); K53I; K55G | – | 0.91 OD 450 nm
